# Assay results published in the supplement of paper PMC12042874.
# ± gives the uncertainty stated by the source.
# Assay: amyloid nucleation score (Sup35N fusion, yeast selection) (log enrichment); library NNK3; higher = more nucleation; inactive = no reads after selection
# Method in brief: (§1)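 In psi-negative yeast, Sup35N fusions carrying peptides of 20 random codons were induced with 100 μM copper sulfate for 24 hours. The cells then grew 7 days at 30°C on medium lacking adenine and uracil, and plasmid inserts from input and output were Illumina-sequenced, excluding sequences with under 100 input reads. Nucleation score is the DiMSum log enrichment of output over input reads, centred on the mode score of non-aggregating sequences.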
row,Substance,amyloid nucleation score
1,LMYMS,inactive

# Assay: amyloid nucleation score (Sup35N fusion, yeast selection) (log enrichment); library NNK1; higher = more nucleation; inactive = no reads after selection
# Method in brief: as §1
row,Substance,amyloid nucleation score
1,LMYMS,-0.11 ± 0.67
2,YWYFYISDRVKDNSCSNWSL,-1.03 ± 0.47
3,YYEMIFSWVTPHSYRDTSYC,-0.733 ± 1.9
4,YYFRFCREVIARLGMDMSSK,-0.341 ± 0.29
5,YYNVYTTYTASVWGTYRWNV,-1.45 ± 0.82
6,YYRKHFRLYIIIWDLFKI,0.282 ± 0.97
7,YYSFGRFKYTILL,-0.242 ± 0.6
8,YYSYMNCIMITISLLMLVLQ,-0.052 ± 0.21
9,YYYYPNGDCEKK,-0.657 ± 0.63
